Data as given in patent publication US20050256302A1, “Novel peptides having camp producing activity” (Japan Science and Technology Agency, priority 2002, published 2005).
Values belong to the molecule of their own block, whether it stands above or below them. Bridges are numbered along the chain shown (N, C = ends). Where no end group is shown, it is not given here.

What was measured:
LLC-PK1 cells = experiment: cAMP production in LLC-PK1 cells by bovine or canine CRSP; type: cell-based, pig; conditions: 10 minutes, IBMX
Experimental: Further, with regard to the peptides of the present invention identified in cow and dog (bovine CRSP and canine CRSP), cAMP productivity of CRSP using LLC-PK1 cells by the same manner as above was investigated.
LLC-PK1 cells were incubated in a culture medium (a Dulbecco-modified Eagle medium (DMEM) containing 10% of fetal bovine serum). After two days, the cells were washed twice with a DMEM containing 0.05% of bovine serum albumin, the medium in the incubation dish was substituted with a DMEM containing 0.5 mM of 3-isobutyl-1-methylxanthine and 0.05% of bovine serum albumin (DMEM/BSA/IBMX) and incubation was conducted at 37° C. for 30 minutes. After the incubation, the medium was substituted with a DMEM/BSA/IBMX in which CRSP was dissolved so as to make it 0 M and 10^−12 to 10^−6 M and incubation was conducted at 37° C. for 10 minutes. After the incubation, the medium in the incubating dish was removed, ethanol was added thereto and the incubating dish was once frozen in a freezer for the cell lysis. […] After that, 100 μl of 1% γ-globulin and 500 μl of 25% polyethylene glycol were added, the mixture was well mixed and centrifuged and radioactivity of the precipitate was measured using a gamma-counter and compared with radioactivity of the standard curve prepared by cAMP of known concentrations whereupon the amount of cAMP was quantified.

[1] = target: T1, Pig calcitonin receptor (CTR) (Sus scrofa, UniProt P25117); experiment: cAMP production in COS-7 cells expressing pig calcitonin receptor; type: cell-based; conditions: CTR expressed in COS-7
T1 construct: expressed in transfected cells; host or cells: COS-7 (given as rhesus monkey renal cells), vector pcDNA 3.1
T1 sequence (P25117 30-498): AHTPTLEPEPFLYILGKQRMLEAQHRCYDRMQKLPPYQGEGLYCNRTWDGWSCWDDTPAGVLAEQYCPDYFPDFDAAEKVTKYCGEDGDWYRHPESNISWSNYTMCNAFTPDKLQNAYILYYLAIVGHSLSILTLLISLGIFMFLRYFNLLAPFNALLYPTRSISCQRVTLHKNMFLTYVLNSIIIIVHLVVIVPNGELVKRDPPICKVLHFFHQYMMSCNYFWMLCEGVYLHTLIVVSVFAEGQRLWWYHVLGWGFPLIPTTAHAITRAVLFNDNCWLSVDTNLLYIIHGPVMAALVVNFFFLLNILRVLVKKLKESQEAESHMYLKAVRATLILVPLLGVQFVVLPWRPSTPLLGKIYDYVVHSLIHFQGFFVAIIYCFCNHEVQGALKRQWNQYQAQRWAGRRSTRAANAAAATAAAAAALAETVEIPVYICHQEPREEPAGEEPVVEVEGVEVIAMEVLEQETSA
Experimental: Pig calcitonin receptor (CTR) was introduced into a mammalian expression vector pcDNA 3.1, expressed in rhesus monkey renal cells (COS-7) and production amount of cAMP by stimulation of CRSP was measured by radioimmunoassay. Similarly, CTR was expressed in opossum renal cells (OK cells) and production amount of cAMP by stimulation of CRSP was measured by radioimmunoassay while incorporation of sodium ion was measured by measuring the incorporation of sodium chloride having radioactivity (^22Na) by a gamma-counter.
Pig calcitonin receptor (CTR) was introduced into mammalian expression vector pcDNA 3.1 and then expressed in rhesus monkey renal cells (COS-7) whereupon production amount of cAMP by CRSP stimulation was measured by radioimmunoassay.
Pig calcitonin receptor (CTR) was introduced into a mammalian expression vector pcDNA 3.1 and expressed in rhesus monkey renal cells (COS-7) and production amount of cAMP by CRSP stimulation was measured by radioimmunoassay.
Pig calcitonin receptor (CTR) was introduced into a mammalian expression vector pcDNA 3.1, then expressed in rhesus monkey renal cells (COS-7) and production amount of cAMP by CRSP or CRSP-Gly stimulation was measured-by radioimmunoassay.

[2] = target: T2, pig calcitonin receptor (CTR) (pig, UniProt P25117); experiment: cell-based or functional assay
T2 sequence: T1 sequence (P25117 30-498)

Molecule: ACNTATCMTHRLAGWLSRSGSMVRSNLLPTKMGFKIFNGP-OH (not fully specified (bridges); printed as ACNTATCMTHRLAGWLSRSGSMVRSNLLPTKMGFKIFNGP-OH; cysteine pairing not given here; listed as Bos sp.) [bovine CRSP]
cAMP productivity compared with pig CRSP (LLC-PK1 cells): nearly the same result as in the case of pig CRSP

cAMP productivity, CRSP compared with CRSP-Gly [1]: nearly the same cAMP productivity
Molecule: Ser-Cys-Asn-Thr-Ala-Thr-Cys-Met-Thr-His-Arg-Leu-Val-Gly-Leu-Leu-Ser-Arg-Ser-Gly-Ser-Met-Val-Arg-Ser-Asn-Leu-Leu-Pro-Thr-Lys-Met-Gly-Phe-Lys-Val-Phe-Gly-Gly-OH (SCNTATCMTHRLVGLLSRSGSMVRSNLLPTKMGFKVFGG-OH; not fully specified (bridges); printed as Ser-Cys-Asn-Thr-Ala-Thr-Cys-Met-Thr-His-Arg-Leu-Val-Gly-Leu-Leu-Ser-Arg-Ser-Gly-Ser-Met-Val-Arg-Ser-Asn-Leu-Leu-Pro-Thr-Lys-Met-Gly-Phe-Lys-Val-Phe-Gly-Gly-OH; cysteine pairing not given here; listed as Sus sp.) [CRSP-Gly]

Molecule: SCNSATCVAHWLGGLLSRAGSVANTNLLPTSMGFKVYN-OH (not fully specified (bridges); printed as SCNSATCVAHWLGGLLSRAGSVANTNLLPTSMGFKVYN-OH; cysteine pairing not given here; listed as Canis sp.) [canine CRSP]
cAMP productivity compared with pig CRSP (LLC-PK1 cells): nearly the same result as in the case of pig CRSP

cAMP-producing activity relative to pig CGRP, LLC-PK1 cells [2]: ~40 fold | cAMP-producing activity relative to pig calcitonin, COS-7 cells expressing pig CTR [2]: ~350 fold | cAMP-producing activity relative to pig calcitonin, LLC-PK1 cells [2]: ~6 fold
B1: pig calcitonin receptor-stimulating peptide (CRSP) (peptide)
peptide: SCNTATCMTHRLVGLLSRSGSMVRSNLLPTKMGFKVFG-NH2
modifications: disulfide 2-7; N-terminus assumed
SMILES: CSCC[C@H](NC(=O)[C@H](CCCCN)NC(=O)[C@@H](NC(=O)[C@@H]1CCCN1C(=O)[C@H](CC(C)C)NC(=O)[C@H](CC(C)C)NC(=O)[C@H](CC(N)=O)NC(=O)[C@H](CO)NC(=O)[C@H](CCCNC(=N)N)NC(=O)[C@@H](NC(=O)[C@H](CCSC)NC(=O)[C@H](CO)NC(=O)CNC(=O)[C@H](CO)NC(=O)[C@H](CCCNC(=N)N)NC(=O)[C@H](CO)NC(=O)[C@H](CC(C)C)NC(=O)[C@H](CC(C)C)NC(=O)CNC(=O)[C@@H](NC(=O)[C@H](CC(C)C)NC(=O)[C@H](CCCNC(=N)N)NC(=O)[C@H](Cc1c[nH]cn1)NC(=O)[C@@H](NC(=O)[C@H](CCSC)NC(=O)[C@@H]1CSSC[C@H](NC(=O)[C@@H](N)CO)C(=O)N[C@@H](CC(N)=O)C(=O)N[C@@H]([C@@H](C)O)C(=O)N[C@@H](C)C(=O)N[C@@H]([C@@H](C)O)C(=O)N1)[C@@H](C)O)C(C)C)C(C)C)[C@@H](C)O)C(=O)NCC(=O)N[C@@H](Cc1ccccc1)C(=O)N[C@@H](CCCCN)C(=O)N[C@H](C(=O)N[C@@H](Cc1ccccc1)C(=O)NCC(N)=O)C(C)C
